From patent US20230189818A1, “RNA-BASED CONTROL OF BOTRYTIS” (priority 2021, published 2023)

Experiments:
Botrytis cinerea conidia = experiment: In vitro liquid-based assay (fungal biomass, 96-well plates, Cytation 5); format: cell-based; settings: co-incubated with conidia for three days, vs untreated control
Protocol: Fungal culture. The Botrytis cinerea was plated each week the culture onto Malt Extract Agar (MEA) from long-term storage on silica stored at 4° C. Three pellets of silica were added to the center of a MEA agar plate and grown at room temperature without parafilm/tape seal for 10-14 days before use; a culture 12 days old was typically used.
Spore and media preparation. A pure culture of B. cinerea was flooded with a 0.01% Triton x-100 solution and conidia scraped free with a sterile hockey stick. The suspension was transferred to two, 1.5 mL centrifuge tubes and centrifuged at 8000 rpm for two minutes. The supernatant was discarded, pelleted spores washed twice with sterile water, then resuspended in sterile water. Conidia were quantified using a hemacytometer and diluted to a final concentration of 5000 conidia/mL stock. A stock solution of 1.25× minimal media was prepared for the assay setup using the components below. Once the stock solution was made, the pH was adjusted to 6.0 using NaOH or KOH, then filter sterilized through a 0.2 um filter tower and vacuum pump and stored at 4° C. The Kao & Michayluk Vitamins (100×) is a filter sterilized stock solution. The stock contains vitamins and amino acids as described by Kao & Michayluk. After filter sterilization, 20 mg of 4-Aminobenzoic acid in 100 ml of solution was added.
Experimental setup. Screening assays were setup in 96-well plates with conidia co-incubated with treatments (controls and dsRNAs) for three days before determining fungal biomass. Each treatment was replicated eight times within a single plate. In each well consisted of 12.5 μl of conidia suspension, 25 μl of the treatment, 12.5 μl of sterile deionized water, and 200 μl of minimal media. Each plate was covered with a breath right film and placed in the percival growth chamber at 23° C. on the shaking platform set to 120 RPM with 24-hour lighting. Plates were incubated for 72 hours before determining fungal growth.
Reading assay plate. Fungal biomass was determined by reading plates with the Cytation 5 machine. The program was set to compile 8 photo slices per well under brightfield microscopy with a 2.5× lens to measure biomass.
Data analysis. Analysis will automatically run on Cytation5 to determine final biomass.
Results are shown in Table 1B representing the average reduction in biomass vs. control for tested sequences across several runs described above.

[1] = tested on: Botrytis cinerea isolate (B05.10); experiment: Detached leaf assay (tomato leaflets, lesion size); format: in vivo; settings: five days post inoculation, vs untreated inoculated control
Protocol: Plant tissue. Tomato plants, variety Brandywine, were grown in the greenhouse for 3 weeks before harvesting the first true leaves for assays. Nodes 2-4 were prioritized for harvest and only lateral leaflets were used for assays. Leaflets of approximately the same size were used each week and were randomized among treatments. Detached leaflets were immediately brought into the lab for treatment and used within 4 hours of harvest. Detached leaflets were kept at 4° C. until they were treated and placed onto a 1% water agar medium for incubation.
Fungal culture. A Botrytis cinerea isolate (B05.10) was preserved on silica for long-term storage and pulled from these tubes stored at 4° C. for growth on a nutritive medium. Three pellets of silica were added to the center of a Malt Extract Agar (MEA) agar plate and grown at room temperature without parafilm/tape seal for ˜14 days, or until abundant conidia formation, before use.
Treatment of leaflets. Leaflets were treated 24 hours before inoculation and applied using an atomizer to get a fine mist of small droplets entirely covering the leaflet. Silwet L-77 was used as a spreader and added for a 0.03% final concentration (Silwet L-77 brand Phyto Technology Laboratories, S7777 Lot #14D7777001 F). The inoculated control was sprayed with the same volume of sterile DI water with Silwet L-77 in the absence of fungicide or experimental material. Leaflets were spray treated by laying them on a paper towel and holding the atomizer ˜6″ away from the leaflet for applications. Treated leaves were placed on a 1% water agar (10 g Bacto Agar, Difco, in 1 L deionized water, sterilized for 30 minutes at 121° C. and poured when reached a temp of 55° C. into 100×20 mm Petri dishes), with lids of the Petri dishes placed back on before putting Petri dishes under plastic bags to maintain humidity before inoculation the following day. Petri dishes of treated leaflets were left on the lab counter until the following day. Each treatment was replicated ten times with each replicate being a single treated leaflet with two inoculation sites, one on each side of the leaf midvein.
Inoculation. The conidial suspension was prepared by pouring a 7% white grape juice solution onto the culture plate, then scraping the plate with a sterile spatula to dislodge the spores and mycelia. The grape juice solution was prepared by mixing Welch's brand organic white grape juice into sterile deionized water. After dislodging the spores and mycelia of the culture, the suspension was poured through two layers of cheesecloth to remove fungal mycelia and catch the conidial suspension in a clean 50 mL conical tube. Approximately 3 uL of TWEEN 20 was added to conidial suspension to prevent sticking to conical tube. The spore concentration was determined using a Neubauer Improved hemocytometer and inoculum was diluted with more 7% grape juice until a spore concentration of 1×10^5 conidia/mL was reached. Inoculum was used to inoculate host tissue within 2 hours of preparation. Each tomato leaflet was inoculated twice, with inoculation sites placed one per side of the leaflet midvein. A 10 μL volume of spore suspension was placed at each inoculation site using a repeater pipette. Special care was taken not to touch the tip to leaflet surface to avoid contamination between treatments.
Incubation. Petri dishes were placed on lunch trays 6 plates high and moved to an incubator. The incubator was humidity controlled and holds at ˜75% relative humidity. The incubator was kept on 12/12 light/dark days and is set to a temperature of 23° C.
Rating. Measurements were taken at five days post inoculation (DPI). Each lesion that developed was measured using electronic calipers in 2 directions perpendicular to each other to help determine lesion diameter.
Data analysis. Data was analyzed using the SAS JMP statistical program (version 13.2.1) with comparisons made to the untreated, inoculated control. […]

B1: GS2291: dsRNA trigger targeting B. cinerea Bcgpi2 (XM_024693470.1); trigger SEQ ID NO 22, RNA 34, reverse complement 46 (nucleic acid, listed as Botrytis cinerea)
sense: CUGUCAACCAAUUGCGCAUGACAAAUGGAGAUGCUGGACGAUUAAGAAGUAGAGGAAGACAUGCUGAUAGAACGAAGAGUAGCACCAGAAGACGGAAAACUACUUGGAAAAAGCUGCUAUGGGUGAAGCAAUCAUAUCCAGACAAUUACACGGAUCAAGAUACAUUUCUCGAACAUCUGCAGCGAAAUCCACGUCUUCAGCCUUACGACUUUUGGCCAUUGGUAGCAGAUUCCACGGUUAUAGUACAACACGUUUGUUCGGUCAUUAUAUUCAUUGUUUCUUUCGUUGGGAUAUAUGAUAAACAUGUCUCGCCAGUUUCUGUGGUUGGCUGGGGCUCUAUUGCUACCUUUUUGGGGUGGGUGUUAUGGGAUUUAUGGGUGGGACAGGAAGAAAGUACUCGUCCAGCAUUUCCACCACCGCAGCCUUUCUCUCACAGUGUAUCUGCAACAAGUUCAACACCAAACCUAUUGGCAACAGCUGCAAGUGGGCCAAGGCAAUCCUACUCGAUGUCAACAACAUCUCUUCAAUCUACAGCCUCGAAUCUAACCCAACCACCUCCAAUACGACCGGUUUAUACACCACAUAAUU
antisense: AAUUAUGUGGUGUAUAAACCGGUCGUAUUGGAGGUGGUUGGGUUAGAUUCGAGGCUGUAGAUUGAAGAGAUGUUGUUGACAUCGAGUAGGAUUGCCUUGGCCCACUUGCAGCUGUUGCCAAUAGGUUUGGUGUUGAACUUGUUGCAGAUACACUGUGAGAGAAAGGCUGCGGUGGUGGAAAUGCUGGACGAGUACUUUCUUCCUGUCCCACCCAUAAAUCCCAUAACACCCACCCCAAAAAGGUAGCAAUAGAGCCCCAGCCAACCACAGAAACUGGCGAGACAUGUUUAUCAUAUAUCCCAACGAAAGAAACAAUGAAUAUAAUGACCGAACAAACGUGUUGUACUAUAACCGUGGAAUCUGCUACCAAUGGCCAAAAGUCGUAAGGCUGAAGACGUGGAUUUCGCUGCAGAUGUUCGAGAAAUGUAUCUUGAUCCGUGUAAUUGUCUGGAUAUGAUUGCUUCACCCAUAGCAGCUUUUUCCAAGUAGUUUUCCGUCUUCUGGUGCUACUCUUCGUUCUAUCAGCAUGUCUUCCUCUACUUCUUAAUCGUCCAGCAUCUCCAUUUGUCAUGCGCAAUUGGUUGACAG
Q: For B1, which “Average % Reduction in Biomass” value (Botrytis cinerea conidia; 25 ppm dsRNA) is on record?
A: Its value is 5%.

Q: What about the “Average % Reduction in Biomass” value (Botrytis cinerea conidia; 150 ppm dsRNA) of the same molecule?
A: The value was 24%.

Q: What about the “Average % Reduction in Lesion Size” value ([1]; 30 ppm) of the same molecule?
A: Its value is 28.77%.

Q: And the “Average % Reduction in Lesion Size” value ([1]; 50 ppm)?
A: Its value is 46.11%.

B2: GS2589: dsRNA trigger targeting B. cinerea Bcsec15 (XM_024692064.1); trigger SEQ ID NO 49, RNA 53, reverse complement 57 (nucleic acid, listed as Botrytis cinerea)
sense: GGUAUGUUCCGGACAGACCGAAAGAAGAAUACACAUUCCCCGGUGUAUUACCAUUCUCCCAGAUGUACCCAAUGUGCUGUAUAGAUAUCAGAAAUUUCCUGAAUCGAUUCUACUUCAUAAUGGAUGAUCAUUUUCAACAGCCAAACAUUAUUGAUGAGACACUUAAGAAGUCGAUAGAUGAGCUUCUGUCUGAGGAUAUUU
antisense: AAAUAUCCUCAGACAGAAGCUCAUCUAUCGACUUCUUAAGUGUCUCAUCAAUAAUGUUUGGCUGUUGAAAAUGAUCAUCCAUUAUGAAGUAGAAUCGAUUCAGGAAAUUUCUGAUAUCUAUACAGCACAUUGGGUACAUCUGGGAGAAUGGUAAUACACCGGGGAAUGUGUAUUCUUCUUUCGGUCUGUCCGGAACAUACC
Q: How did the “Average % Reduction in Biomass” value (Botrytis cinerea conidia; 25 ppm dsRNA) turn out when B2 was run?
A: Its value is 20%.

Q: And the “Average % Reduction in Biomass” value (Botrytis cinerea conidia; 150 ppm dsRNA)?
A: The value was 39%.

B3: GS2640: dsRNA trigger targeting B. cinerea Bcsec15 (XM_024692064.1); trigger SEQ ID NO 50, RNA 54, reverse complement 58 (nucleic acid, listed as Botrytis cinerea)
sense: AAAUUCAGCACAGAUUUUCAACAGAUUGUGUCUACCGAUGAAUACAUGCCUAUGCCUGUCAAUAGCGAAGAAGACUUUGAUAAAAUCAUUCAAGUCAGUUGGUAUGUUCCGGACAGACCGAAAGAAGAAUACACAUUCCCCGGUGUAUUACCAUUCUCCCAGAUGUACCCAAUGUGCUGUAUAGAUAUCAGAAAUUUCCUGAAUCGAUUCUACUUCAUAAUGGAUGAUCAUUUUCAACAGCCAAACAUUAUUGAUGAGACACUUAAGAAGUCGAUAGAUGAGCUUCUGUCUGAGGAUAUUU
antisense: AAAUAUCCUCAGACAGAAGCUCAUCUAUCGACUUCUUAAGUGUCUCAUCAAUAAUGUUUGGCUGUUGAAAAUGAUCAUCCAUUAUGAAGUAGAAUCGAUUCAGGAAAUUUCUGAUAUCUAUACAGCACAUUGGGUACAUCUGGGAGAAUGGUAAUACACCGGGGAAUGUGUAUUCUUCUUUCGGUCUGUCCGGAACAUACCAACUGACUUGAAUGAUUUUAUCAAAGUCUUCUUCGCUAUUGACAGGCAUAGGCAUGUAUUCAUCGGUAGACACAAUCUGUUGAAAAUCUGUGCUGAAUUU
Q: What does the source list for B3?
A: Average % Reduction in Biomass (Botrytis cinerea conidia; 25 ppm dsRNA): 24%; Average % Reduction in Biomass (Botrytis cinerea conidia; 150 ppm dsRNA): 54%; Average % Reduction in Lesion Size ([1]; 30 ppm): 19.63%; Average % Reduction in Lesion Size ([1]; 50 ppm): 22.76%

B4: GS2641: dsRNA trigger targeting B. cinerea Bcsec15 (XM_024692064.1); trigger SEQ ID NO 51, RNA 55, reverse complement 59 (nucleic acid, listed as Botrytis cinerea)
sense: CAAACAAUGGAGGGUUGGGGAUAUUCAGUUGCCAUAUUAGAUGCUUAUGUGCUUAAGCUUUUCUAUAGAUAUGCUGAUUUGUUAAAACGGAAAUUCAGCACAGAUUUUCAACAGAUUGUGUCUACCGAUGAAUACAUGCCUAUGCCUGUCAAUAGCGAAGAAGACUUUGAUAAAAUCAUUCAAGUCAGUUGGUAUGUUCCGGACAGACCGAAAGAAGAAUACACAUUCCCCGGUGUAUUACCAUUCUCCCAGAUGUACCCAAUGUGCUGUAUAGAUAUCAGAAAUUUCCUGAAUCGAUUCUACUUCAUAAUGGAUGAUCAUUUUCAACAGCCAAACAUUAUUGAUGAGACACUUAAGAAGUCGAUAGAUGAGCUUCUGUCUGAGGAUAUUU
antisense: AAAUAUCCUCAGACAGAAGCUCAUCUAUCGACUUCUUAAGUGUCUCAUCAAUAAUGUUUGGCUGUUGAAAAUGAUCAUCCAUUAUGAAGUAGAAUCGAUUCAGGAAAUUUCUGAUAUCUAUACAGCACAUUGGGUACAUCUGGGAGAAUGGUAAUACACCGGGGAAUGUGUAUUCUUCUUUCGGUCUGUCCGGAACAUACCAACUGACUUGAAUGAUUUUAUCAAAGUCUUCUUCGCUAUUGACAGGCAUAGGCAUGUAUUCAUCGGUAGACACAAUCUGUUGAAAAUCUGUGCUGAAUUUCCGUUUUAACAAAUCAGCAUAUCUAUAGAAAAGCUUAAGCACAUAAGCAUCUAAUAUGGCAACUGAAUAUCCCCAACCCUCCAUUGUUUG
Q: Which results are given for B4?
A: Average % Reduction in Biomass (Botrytis cinerea conidia; 25 ppm dsRNA): 14%; Average % Reduction in Biomass (Botrytis cinerea conidia; 150 ppm dsRNA): 37%; Average % Reduction in Lesion Size ([1]; 30 ppm): 15.75%; Average % Reduction in Lesion Size ([1]; 50 ppm): 30.49%
